Experimental data from FireProtDB (doi:10.1021/bi972394l).
Several values for one entry are separate records, joined by “and”; a condition that tells them apart may be missing. Equal entries are not always repeated.

B1: Superoxide dismutase [Mn], mitochondrial, P04179 (parent)
chain: MLSRAVCGTSRQLAPVLGYLGSRQKHSLPDLPYDYGALEPHINAQIMQLHHSKHHAAYVNNLNVTEEKYQEALAKGDVTAQIALQPALKFNGGGHINHSIFWTNLSPNGGGEPKGELLEAIKRDFGSFDKFKEKLTAASVGVQGSGWGWLGFNKERGHLQIAACPNQDPLQGTTGLIPLLGIDVWEHAYYLQYKNVRPDYLKAIWNVINWENVTERYMACKK

Variants of: B1
Conditions: Homo sapiens; pH 7.8; 88.9 °C; Thermal; DSC; potassium phosphate 2 mM; transition: 2; reversible: Yes; structure 1N0J; whole UniProt chain shown

| Variant | ddG of mutation (higher = less stable) |
| --- | --- |
| MLSRAVCGTSRQLAPVLGYLGSRQKHSLPDLPYDYGALEPHINAQIMQLHHSKHHAAFVNNLNVTEEKYQEALAKGDVTAQIALQPALKFNGGGHINHSIFWTNLSPNGGGEPKGELLEAIKRDFGSFDKFKEKLTAASVGVQGSGWGWLGFNKERGHLQIAACPNQDPLQGTTGLIPLLGIDVWEHAYYLQYKNVRPDYLKAIWNVINWENVTERYMACKK [Y58F] | -3.1 kcal/mol |

Same assay, conditions: Homo sapiens; pH 7.8; Thermal; DSC; potassium phosphate 2 mM; transition: 2; reversible: Yes; structure 1N0J; whole UniProt chain shown

| Variant | unfolding enthalpy (calorimetric) |
| --- | --- |
| MLSRAVCGTSRQLAPVLGYLGSRQKHSLPDLPYDYGALEPHINAQIMQLHHSKHHAAFVNNLNVTEEKYQEALAKGDVTAQIALQPALKFNGGGHINHSIFWTNLSPNGGGEPKGELLEAIKRDFGSFDKFKEKLTAASVGVQGSGWGWLGFNKERGHLQIAACPNQDPLQGTTGLIPLLGIDVWEHAYYLQYKNVRPDYLKAIWNVINWENVTERYMACKK [Y58F] | 351 kcal/mol and 197 kcal/mol |
